Experimental data reported in patent US6103888A, “Mammalian cationic proteins having lipopolysaccharide binding and anti-coagulant activity” (priority 1999, dated 2000).
“And” between values parts separate entries of the source, which are not always exact repeats. Identical values can stand only once.

B1: BPI55: BPI holoprotein (protein, UniProt P17213 32-487, looked up)
Bactericidal …: VNPGVVVRISQKGLDYASQQGTAALQKELKRIKIPDYSDSFKIKHLGKGHYSFYSMDIREFQLPSSQISMVPNVGLKFSISNANIKISGKWKAQKRFLKMSGNFDLSIEGMSISADLKLGSNPTSGKPTITCSSCSSHINSVHVHISKSKVGWLIQLFHKKIESALRNKMNSQVCEKVTNSVSSELQPYFQTLPVMTKIDSVAGINYGLVAPPATTAETLDVQMKGEFYSENHHNPPPFAPPVMEFPAAHDRMVYLGLSDYFFNTAGLVYQEAGVLKMTLRDDMIPKESKFRLTTKFFGTFLPEVAKKFPNMKIQIHVSASTPPHLSVQPTGLTFYPAVDVQAFAVLPNSSLASLFLIGMHTTGSMEVSAESNRLVGELKLDRLLLELKHSNIGPFPVELLQDIMNYIVPILVLPRVNEKLQKGFPLPTPARVQLYNVVLQPHQNFLLFGADVVYK
B2: CAP18: cationic protein from rabbit granulocytes, 16.6 kD, SEQ ID NO:4 (protein)
chain: METHKHGPSLAWWSLLLLLLGLLMPPAIAQDLTYREAVLRAVDAFNQQSSEANLYRLLSMDPQQLEDAKPYTPQPVSFTVKETECPRTTWKLPEQCDFKEDGLVKRCVGTVTRYQAWDSFDIRCNRAQESPEPTGLRKRLRKFRNKIKEKLKKIGQKIQGLLPKLAPRTDY

Experiments:
encapsulated E. coli = conditions: cited from earlier work
[1] = test system: rough mutant strain of Proteus mirabilis; conditions: cited from earlier work
[2] = test system: wild-type smooth Proteus mirabilis; conditions: wild-type smooth organism (Proteus mirabilis); cited from earlier work
Staphylococcus aureus = conditions: Gram-positive Staphylococcus aureus; cited from earlier work
human mononuclear cells = test: LPS-induced tissue factor by human mononuclear cells (clotting assay); type: cell-based
Method: Human mononuclear cells were separated from citrated peripheral blood by centrifugation over Sodium-metrizoate-Ficoll (lymphocyte Separation Medium, Japan Antibody Institute, Gumma). The resulting mixed mononuclear cell suspension was washed 3 times with RPMI 1640 media. Cell suspension (1×10^6 /ml) was stimulated with LPS for 16 to 18 hr.
Veronal buffered saline (VBS) was added to the cell pellet, lysed by 3 cycles of freeze/thaw and sonicated for 10 sec with a hand-held sonicator microbe (Handy Sonic, model UR-20P, Tomy Seiko LTD, Tokyo). Tissue factor activity was tested in modified unactivated partial thromboplastin time (7). One tenth ml of cell lysate (1×10^6 /ml) was preincubated with mouse plasma at 37° C. for 3 min. Then 0.1 ml of 25 mM-CaCl2 which contains phospholipid was added to the mixture and clotting time was measured using a fibrometer (Bio Quest Division, Becton Dickinson, Cokeysville, USA). A standard curve obtained from serial two-fold dilutions of rabbit brain thromboplastic (Simplastin, Ono Pharmaceutical Co.) was used to transpose tissue factor activity into arbitrary tissue factor units (1 μg/ml) suspension of rabbit brain was assigned a value of 1,000 units).
The mean tissue factor units+standard error was determined from three to four samples. Student's t test for unpair data was used to determine the statistically significant differences. A two-tailed P value of <0.05 was considered significant. […]

[3] = test system: galactosamine-sensitized mice; type: in vivo; conditions: CAP18 40 μg IP alone, no galactosamine, no Re-LPS; groups of 10 mice
Text: Galactosamine sensitizes mice to the lethal effects of LPS by a factor 1000 or more. CAP18 and LPS were mixed and injected IP into sensitized mice. CAP18 can neutralize the lethal effects of LPS in this model of endotoxemia (see Table 8).

[4] = LPS 0.1 μg/ml, peptide HA units: RNIP 2, CAP-18 1, HP-1 4, HP-2 2

| Molecule | growth inhibitory activity, reduction over control (encapsulated E. coli) | growth inhibition [1] | growth inhibition [2] | growth inhibition (Staphylococcus aureus) | Inhibition (%) (human mononuclear cells; [4]) | Tissue Factor Units, value in parentheses (ratio to unstimulated control) (human mononuclear cells; [4]) | Δ Units (%) (human mononuclear cells; LPS 0.1 μg/ml, relative to LPS alone (100)) | Tissue Factor Units, value in parentheses (ratio to unstimulated control) (human mononuclear cells; no LPS, peptide alone) | Tissue factor units (human mononuclear cells; no LPS, peptide alone) | Δ Units (human mononuclear cells; no LPS, peptide alone) [Units] | Lethality (%) [3] [%] |
| --- | --- | --- | --- | --- | --- | --- | --- | --- | --- | --- | --- |
| B1 | about 100 fold | inhibited the growth | only the rBPI23 inhibited growth | Neither rBPI23 nor holoprotein BPI55 demonstrated inhibition |  |  |  |  |  |  |  |
| B2 |  |  |  |  | 30% and 35% | 9.9 | 70% and 65% | 1.2 | 583 ± 178 Units ×10^3 /3.6 × 10^4 cells | 235 | 0 |
